Four molecules from patent EP1167527A9 (Euroscreen S.A., dated 2002) can be followed below.

Experiment [1] addresses T1, chemokine receptor CCR1 (human, UniProt P32246 1-355).
T1 sequence (looked up): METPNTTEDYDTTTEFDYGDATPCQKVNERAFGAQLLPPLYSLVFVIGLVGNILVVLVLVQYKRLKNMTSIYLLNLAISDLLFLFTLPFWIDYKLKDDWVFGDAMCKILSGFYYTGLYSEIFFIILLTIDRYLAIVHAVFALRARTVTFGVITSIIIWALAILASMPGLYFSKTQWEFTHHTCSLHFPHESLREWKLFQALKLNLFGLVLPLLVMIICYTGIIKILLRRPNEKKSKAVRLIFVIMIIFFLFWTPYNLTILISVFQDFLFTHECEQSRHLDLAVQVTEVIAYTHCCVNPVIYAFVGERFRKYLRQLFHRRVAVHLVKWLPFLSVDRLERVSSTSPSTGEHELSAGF
Put plainly: cell-based or functional assay.

Experiment [2] concerns the target T2, chemokine receptor 5 (CCR5; AC P51681) (human, UniProt P51681 1-352). Put plainly: cell-based or functional assay.
Experiment [3] concerns the target T2, chemokine receptor 5 (CCR5; AC P51681). Put plainly: radioligand competition, 125I-MIP 1-alpha tracer, CCR5. In general terms: In a radioligand displacement assay an active substance lowers the binding of a labelled ligand.
The target of experiment [4] is T1, chemokine receptor CCR1. Put plainly: radioligand competition, 125I-Rantes tracer, CCR1.
Experiment [5] deals with T3, chemokine receptor CCR3 (human, UniProt P51677 1-355).
T3 construct: whole, on cells
T3 sequence (looked up): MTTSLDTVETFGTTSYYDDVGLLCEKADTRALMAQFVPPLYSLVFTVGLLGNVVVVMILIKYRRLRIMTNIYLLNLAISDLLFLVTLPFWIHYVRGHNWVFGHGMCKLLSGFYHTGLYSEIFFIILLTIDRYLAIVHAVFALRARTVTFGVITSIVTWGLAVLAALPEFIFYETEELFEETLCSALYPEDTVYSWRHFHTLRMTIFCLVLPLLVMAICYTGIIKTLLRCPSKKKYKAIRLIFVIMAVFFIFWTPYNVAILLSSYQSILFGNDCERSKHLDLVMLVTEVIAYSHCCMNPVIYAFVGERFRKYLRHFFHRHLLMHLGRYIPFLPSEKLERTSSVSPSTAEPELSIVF
Put plainly: radioligand competition, 125I-Eotaxin tracer, CCR3.

The target of experiment [6] is T2, chemokine receptor 5 (CCR5; AC P51681). Put plainly: radioligand competition, 0.1 nM 125I-MIP 1-alpha tracer, crude membranes of CHO-K1 cells expressing CCR5.
The target of experiment [7] is T1, chemokine receptor CCR1. Put plainly: radioligand competition, 0.1 nM 125I-Rantes tracer, crude membranes of CHO-K1 cells expressing CCR1.
Experiment [8] addresses T3, chemokine receptor CCR3. Put plainly: radioligand competition, 0.1 nM 125I-Eotaxin tracer, crude membranes of CHO-K1 cells expressing CCR3.
Experiment [9] deals with T3, chemokine receptor CCR3. Put plainly: cell-based or functional assay.
In experiment [10] the target is T1, chemokine receptor CCR1. Put plainly: radioligand competition binding, CCR1.

T2 sequence (P51681 whole entry, one chain of several): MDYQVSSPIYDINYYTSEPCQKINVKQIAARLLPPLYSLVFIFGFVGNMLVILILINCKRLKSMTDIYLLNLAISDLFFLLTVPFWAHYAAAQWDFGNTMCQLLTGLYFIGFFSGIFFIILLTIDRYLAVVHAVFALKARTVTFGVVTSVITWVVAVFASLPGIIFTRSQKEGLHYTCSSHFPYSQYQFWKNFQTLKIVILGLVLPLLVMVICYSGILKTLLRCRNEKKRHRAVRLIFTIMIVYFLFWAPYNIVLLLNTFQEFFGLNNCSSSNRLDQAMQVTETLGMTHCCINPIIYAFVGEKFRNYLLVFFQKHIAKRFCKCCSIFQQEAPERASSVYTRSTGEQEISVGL

B1: RANTES (ligand, UniProt P13501 24-91, looked up)
chain: SPYSSDTTPCCFAYIARPLPRAHIKEYFYTSGKCSNPAVVFVTRKNRQVCANPEKKWVREYINSLEMS
In the case of B1, the “functional aequorin-based assay, EC50” value in [1] worked out at 6.3 nM. Besides, the “aequorin assay (intracellular calcium), CHO-K1 cells expressing CCR5, EC50” value (“aequorin assay (intracellular calcium)” below) in experiment [2] was 2.4 nM.

B2: processed human chemokine PHC-1 (ligand)
chain: GPYHPSECCFTYTTYKIPRQRIMDYYETNSQCSKPGIVFITKRGHSVCTNPSDKWVQDYIKDMKEN
notes: Purified from human hemofiltrate or made by tryptic digestion of HCC-1 (1-74); also called HCC-1[9-74]; HCC-1, residues 9-74
Turning to B2, the inhibition constant (Ki) (as a rule, a dissociation constant, usually derived from enzyme kinetics or from competition with a known ligand) in [3] was 0.04 nM; in [4], 0.023 nM; in experiment [5], 2.7 nM. For the same molecule, the IC50 (usually the point on the concentration scale where inhibition reaches its midpoint) is 0.04 nM in experiment [6], 2.3 nM in experiment [7] and 78 nM in experiment [8]. The entries for the “functional aequorin-based assay, EC50” value in [9] and in [1] were 78 nM and 2.8 nM, respectively. The “aequorin assay (intracellular calcium)” value in experiment [2] was determined as 4.8 nM.

B3: MIP 1-alpha (ligand, UniProt P10147 24-92, looked up)
chain: SLAADTPTACCFSYTSRQIPQNFIADYFETSSQCSKPGVIFLTKRSRQVCADPSEEWVQKYVSDLELSA
As for B3, the “aequorin assay (intracellular calcium)” value in [2] was determined as 3.3 nM.

B4: full size human chemokine HCC-1, amino acid residues 1-74 (ligand)
chain: TKTESSSRGPYHPSECCFTYTTYKIPRQRIMDYYETNSQCSKPGIVFITKRGHSVCTNPSDKWVQDYIKDMKEN
notes: 74-residue chemokine, Mr 8673; Swiss-Prot Q16627 is printed for the HCC-1 precursor; also called full-size HCC-1; full length HCC-1
B4 registered a Ki in experiment [10] of 100 nM.
